Numbering of substitutions follows the chain as printed.
T1: VEGFR-3-Fc (UniProt P35916 25-328)
T1 construct: domain: first three Ig domains; conditioned supernatant of 293T cells; also called VEGFR-3-Fc fusion protein; not shown: Fc fragment of the pIg vector
T1 sequence (looked up): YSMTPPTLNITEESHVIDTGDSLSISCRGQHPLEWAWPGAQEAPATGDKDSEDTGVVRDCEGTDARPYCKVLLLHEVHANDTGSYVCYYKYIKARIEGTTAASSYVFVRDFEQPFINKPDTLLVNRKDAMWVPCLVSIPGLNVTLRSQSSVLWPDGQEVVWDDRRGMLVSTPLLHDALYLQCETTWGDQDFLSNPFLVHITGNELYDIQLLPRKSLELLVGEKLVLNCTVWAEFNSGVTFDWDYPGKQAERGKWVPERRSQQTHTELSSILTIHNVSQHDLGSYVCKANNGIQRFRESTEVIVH

B1: 21-4 (ligand)
chain: AHYNTEILKSIDNEWRKTQCMPREVCIDVGKEYPDEIEYIFKPSCVPLMRCGGCCNSEGLQCMNTSTSYLSKTLFEIKPHQGQHIGEMSFLQHNKCECRPKKD
B2: 21-3 (ligand)
chain: AHYNTEILKSIDNEWRKTQCMPREVCIDVGKEYPDEIEYIFKPSCVPLMRCGGCCNSEGLQCVPTEESNITMQIMRIKPHQGQHIGEMSFLQHNKCECRPKKD
B3: 42-10 (ligand)
chain: AHYNTEILKFMDVYQRSYCHPREVCIDVGKEFGVATNTFFKPPCVSVYRCGGCCNDEGLECMNTSTSYLSKTLFEITVPLSQGPKPVTISFLQHNKCECRPKKD
B4: 42-12 (ligand)
chain: B3 chain with D56S, E60Q
B5: 44-2 (ligand)
chain: AHYNTEILKFMDVYQRSYCHPREVCIDVGKEFGVATNTFFKPSCVPLMRCGGCCNDEGLECMNTSTSYLSKTLFEIKPHQGQHIGEMSFLQHNKCECRPKKD
B6: 44-4 (ligand)
chain: B5 chain with D56S, E60Q
B7: 41-14 (ligand)
chain: AHYNTEILKFMDVYQRSYCHPREVCIDVGKEYPDEIEYIFKPSCVPLMRCGGCCNDEGLECMNTSTSYLSKTLFEITVPLSQGPKPVTISFANHTSCRCMSKLD
B8: 43-16 (ligand)
chain: B7 chain with S43P, P46S, L47V, M48Y, D56S, E60Q
B9: 43-14 (ligand)
chain: B7 chain with S43P, P46S, L47V, M48Y
B10: 41-16 (ligand)
chain: B7 chain with D56S, E60Q
B11: 34-15 (ligand)
chain: GQNHHEVVKSIDNEWRKTQCMPIETLVDIFQEFGVATNTFFKPSCVPLMRCGGCCNSEGLQCVPTEESNITMQIMRITVPLSQGPKPVTISFANHTSCRCMSKLD
B12: 42-1 (ligand)
chain: AHYNTEILKFMDVYQRSYCHPREVCIDVGKEFGVATNTFFKPPCVSVYRCGGCCNDEGLECVPTEESNITMQIMRIKPHQGQHIGEMSFLQHNKCECRPKKD
B13: 41-9 (ligand)
chain: AHYNTEILKFMDVYQRSYCHPREVCIDVGKEYPDEIEYIFKPSCVPLMRCGGCCNDEGLECVPTEESNITMQIMRITVPLSQGPKPVTISFLQHNKCECRPKKD
B14: 41-11 (ligand)
chain: B13 chain with D56S, E60Q
B15: 44-9 (ligand)
chain: B13 chain with Y32F, P33G, D34V, E35A, I36T, E37N, Y38T, I39F
B16: 43-9 (ligand)
chain: B13 chain with S43P, P46S, L47V, M48Y
B17: 43-11 (ligand)
chain: B13 chain with S43P, P46S, L47V, M48Y, D56S, E60Q
B18: 42-6 (ligand)
chain: AHYNTEILKFMDVYQRSYCHPREVCIDVGKEFGVATNTFFKPPCVSVYRCGGCCNDEGLECMNTSTSYLSKTLFEIKPHQGQHIGEMSFANHTSCRCMSKLD
B19: 42-8 (ligand)
chain: B18 chain with D56S, E60Q
B20: 42-9 (ligand)
chain: AHYNTEILKFMDVYQRSYCHPREVCIDVGKEFGVATNTFFKPPCVSVYRCGGCCNDEGLECVPTEESNITMQIMRITVPLSQGPKPVTISFLQHNKCECRPKKD
B21: 42-15 (ligand)
chain: B20 chain with D56S, E60Q, L92A, Q93N, N95T, K96S, E98R, R100M, P101S, K103L
B22: 42-11 (ligand)
chain: B20 chain with D56S, E60Q
B23: 42-13 (ligand)
chain: B20 chain with L92A, Q93N, N95T, K96S, E98R, R100M, P101S, K103L
B24: 41-6 (ligand)
chain: AHYNTEILKFMDVYQRSYCHPREVCIDVGKEYPDEIEYIFKPSCVPLMRCGGCCNDEGLECMNTSTSYLSKTLFEIKPHQGQHIGEMSFANHTSCRCMSKLD
B25: 44-8 (ligand)
chain: B18 chain with P43S, S46P, V47L, Y48M, D56S, E60Q

Each binder was assayed against T2, VEGFR-2-Fc (UniProt P35968 20-322) (assay: receptor-Fc IP).
T2 construct: domain: first 3 Ig domains; conditioned supernatant of 293T cells; also called VEGFR-2-Fc fusion protein; not shown: Fc fragment of the pIg vector
How it was run: (§1)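 Binding of ligand from sample supernatant measured by pentahistidine-antibody immunoprecipitation. IP mix: PBS with 1.5% BSA, 0.06% Tween 20, 3 μg/ml heparin and 400 ng/ml fusion protein, added 1:2 to sample supernatant.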

T2 sequence (P35968 20-322): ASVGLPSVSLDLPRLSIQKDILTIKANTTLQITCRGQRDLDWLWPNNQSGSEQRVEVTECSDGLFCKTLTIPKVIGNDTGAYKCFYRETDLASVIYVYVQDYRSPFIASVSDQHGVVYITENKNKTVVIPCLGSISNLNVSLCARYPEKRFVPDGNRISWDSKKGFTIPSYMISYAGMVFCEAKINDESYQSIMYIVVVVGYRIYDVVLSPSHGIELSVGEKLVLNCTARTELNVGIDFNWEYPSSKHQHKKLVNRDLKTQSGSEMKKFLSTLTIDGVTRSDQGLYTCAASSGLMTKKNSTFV

Binding result, no binding:
B1
B2
B3
B4
B5
B6
B7
B8
B9
B10
B11
B12
B13
B14
B15
B16
B17
B18
B19
B20
B21
B22
B23
B24
B25

The binders below were run against T1, VEGFR-3-Fc (assay: receptor-Fc IP).
How it was run: as §1

Binding result, no binding:
B1
B2
B3
B4
B5
B6
B7
B8
B9
B10
B11
B12
B13
B14
B15
B16
B17
B18
B19
B20
B21
B22
B23
B24
B25

What follows are binders tested against T3, VEGFR-1-Fc (UniProt P17948 27-338) (assay: receptor-Fc IP).
T3 construct: domain: first three Ig domains; expressed in Drosophila S2 cells, purified on Protein A sepharose; also called VEGFR-1-Fc fusion protein; not shown: Fc fragment from the Signal-pIgPlus vector
How it was run: as §1

T3 sequence (P17948 27-338): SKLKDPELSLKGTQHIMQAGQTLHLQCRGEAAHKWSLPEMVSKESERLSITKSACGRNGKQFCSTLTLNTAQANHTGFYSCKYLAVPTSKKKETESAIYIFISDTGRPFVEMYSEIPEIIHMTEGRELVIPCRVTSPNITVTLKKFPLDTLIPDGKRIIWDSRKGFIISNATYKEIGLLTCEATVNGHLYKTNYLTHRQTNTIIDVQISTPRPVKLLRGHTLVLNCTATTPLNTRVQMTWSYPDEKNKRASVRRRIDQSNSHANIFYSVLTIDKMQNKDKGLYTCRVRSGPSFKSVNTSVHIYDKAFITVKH

Binding result, no binding:
B1
B2
B3
B4
B5
B6
B7
B8
B9
B10
B11
B12
B13
B14
B15
B16
B17
B18
B19
B20
B21
B22
B23
B24
B25

From patent US20080058263A1 (published 2008)
